Patent publication US5681715

Key:
[1] = target: LipA-LipD hybrid lipase (pAHE16, pAHE23) (Pseudomonas cepacia DSM 3959; Pseudomonas cepacia DSM 3401) (UniProt P22088)
[2] = target: LipD, lipase from P. cepacia DSM 3401 (Pseudomonas cepacia DSM 3401)
[3] = target: LipA lipase of Pseudomonas cepacia DSM 3959 produced in E. coli from pAHE2 or pAHE10 (inclusion bodies) (Pseudomonas cepacia DSM 3959) (UniProt P22088)
[4] = target: mature, extracellular lipase from P. cepacia DSM 3959 (Pseudomonas cepacia DSM 3959) (UniProt P22088)
[5] = target: intracellular prelipase from P. cepacia DSM 3959 (Pseudomonas cepacia DSM 3959) (UniProt P22088)
[6] = target: LipA lipase of Pseudomonas cepacia DSM 3959 produced in E. coli from pAHE2 or pAHE10 (inclusion bodies) (Pseudomonas cepacia DSM 3959) (UniProt P22088); remark: listed apart in the source
[7] = target: mature LipA produced in E. coli without signal peptide (pAHE19, pAHE22) (Pseudomonas cepacia DSM 3959) (UniProt P22088)
[8] = target: LipD, lipase from P. cepacia DSM 3401 (Pseudomonas cepacia DSM 3401); remark: listed apart in the source

“LimA, Pseudomonas cepacia lipase modulator (chaperone molecule) from P. cepacia DSM 3959 (from UniProt P22089)” was tested. Which LU after renaturation [1] did it give?
Its LU after renaturation is 1 LU.

What about the No of LU recovered (+UREA) and % recovery after denaturation and renaturation, first preparation [2] of the same substance?
The No of LU recovered (+UREA) and % recovery after denaturation and renaturation, first preparation was 0.45 LU.

And the No of lipase units recovered after denaturation and renaturation, inclusion bodies diluted 1:10 [3]?
Its No of lipase units recovered after denaturation and renaturation, inclusion bodies diluted 1:10 is 7.8 LU.

And the LU after renaturation [4]?
Its LU after renaturation is 1.3 LU.

What about the LU after renaturation [5] of the same substance?
The LU after renaturation was 0 LU.

And the No of LU recovered after denaturation and renaturation (pH stat), inclusion bodies undiluted [6]?
Its No of LU recovered after denaturation and renaturation (pH stat), inclusion bodies undiluted is 16 LU.

And the LU after renaturation [7]?
The LU after renaturation was 0.75 LU.

What about the LU after renaturation and % recovery, new preparation [8] of the same substance?
Its LU after renaturation and % recovery, new preparation is 56 LU.
